Reference: paper PMC6906086

Columns and labels:
Lsr2 = Lsr2 (Mycobacterium tuberculosis H37Rv, UniProt P9WIP7 1-112); experiment: EMSA; 0.95-7.6 uM Lsr2; conditions: protein: recombinant; (pET15-TEV, Ni-NTA); chain copies: 2; blunt
Lsr2BD WT = Lsr2BD WT (Mycobacterium tuberculosis H37Rv, UniProt P9WIP7 66-112); experiment: fluorescence anisotropy; pH 7.5; 4 nM DNA; conditions: protein: recombinant; tags: 6xHis; label: 5' Alexa Fluor 488; blunt

Binder	binding result (Lsr2)	Kd (Lsr2BD WT) [nM]
leuS site (dsDNA) DNA 1: AATTCGGCAAAATCGGTAAG DNA 2: CTTACCGATTTTGCCGAATT	binds	–
AT-rich 14-mer (dsDNA) DNA 1: CGCGCATATATGCG DNA 2: CGCATATATGCGCG	–	210 ± 60
